Article PMC5779224 (2017)

B1: Nav1.2 (aa 1035–1129) (domain or fragment)
chain: KALDEIKPLEDLNNKKDSCISNHTTIEIGKDLNYLKDGNGTTSGIGSSVEKYVVDESDYMSFINNPSLTVTVPIAVGESDFENLNTEEFSSESDM
B2: AnkB 828-896 (protein)
chain: TEKHKLNVPETMTEVLDVSDEEGDDTMTGDGGEYLRPEDLKELGDDSLPSSQFLDGMNYLRYSLEGGRS

How the values were obtained:
[1] = target: T1, AnkB_MBD (AnkB ANK repeats only, aa 28–827) (human, UniProt Q01484-2 28-827); assay: ITC
T1 chain: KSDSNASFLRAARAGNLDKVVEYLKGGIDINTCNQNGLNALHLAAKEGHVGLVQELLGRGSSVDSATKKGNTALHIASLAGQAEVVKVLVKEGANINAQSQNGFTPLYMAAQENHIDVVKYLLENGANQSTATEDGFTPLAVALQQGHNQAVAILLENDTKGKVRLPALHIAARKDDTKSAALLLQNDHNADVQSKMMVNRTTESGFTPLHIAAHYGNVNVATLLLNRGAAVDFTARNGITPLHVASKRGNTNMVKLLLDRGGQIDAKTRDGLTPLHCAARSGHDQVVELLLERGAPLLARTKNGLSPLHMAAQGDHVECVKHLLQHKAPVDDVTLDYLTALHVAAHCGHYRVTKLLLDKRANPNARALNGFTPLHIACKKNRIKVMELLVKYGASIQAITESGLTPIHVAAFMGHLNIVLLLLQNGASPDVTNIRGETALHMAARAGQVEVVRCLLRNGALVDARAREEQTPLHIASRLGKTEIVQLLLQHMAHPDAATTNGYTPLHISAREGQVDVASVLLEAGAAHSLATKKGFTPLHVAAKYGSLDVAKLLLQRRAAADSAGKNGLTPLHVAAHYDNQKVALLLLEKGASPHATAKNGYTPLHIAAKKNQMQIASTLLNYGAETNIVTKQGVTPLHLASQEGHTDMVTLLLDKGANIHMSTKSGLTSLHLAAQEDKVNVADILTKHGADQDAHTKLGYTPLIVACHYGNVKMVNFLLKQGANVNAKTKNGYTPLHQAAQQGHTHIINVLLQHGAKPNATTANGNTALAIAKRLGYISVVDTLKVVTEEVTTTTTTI

[2] = target: T2, AnkG 38–855 (AnkG MBD-AI-c protein; MBD + partial AI-c) (rat, UniProt O70511-1 38-855); assay: ITC
T2 chain: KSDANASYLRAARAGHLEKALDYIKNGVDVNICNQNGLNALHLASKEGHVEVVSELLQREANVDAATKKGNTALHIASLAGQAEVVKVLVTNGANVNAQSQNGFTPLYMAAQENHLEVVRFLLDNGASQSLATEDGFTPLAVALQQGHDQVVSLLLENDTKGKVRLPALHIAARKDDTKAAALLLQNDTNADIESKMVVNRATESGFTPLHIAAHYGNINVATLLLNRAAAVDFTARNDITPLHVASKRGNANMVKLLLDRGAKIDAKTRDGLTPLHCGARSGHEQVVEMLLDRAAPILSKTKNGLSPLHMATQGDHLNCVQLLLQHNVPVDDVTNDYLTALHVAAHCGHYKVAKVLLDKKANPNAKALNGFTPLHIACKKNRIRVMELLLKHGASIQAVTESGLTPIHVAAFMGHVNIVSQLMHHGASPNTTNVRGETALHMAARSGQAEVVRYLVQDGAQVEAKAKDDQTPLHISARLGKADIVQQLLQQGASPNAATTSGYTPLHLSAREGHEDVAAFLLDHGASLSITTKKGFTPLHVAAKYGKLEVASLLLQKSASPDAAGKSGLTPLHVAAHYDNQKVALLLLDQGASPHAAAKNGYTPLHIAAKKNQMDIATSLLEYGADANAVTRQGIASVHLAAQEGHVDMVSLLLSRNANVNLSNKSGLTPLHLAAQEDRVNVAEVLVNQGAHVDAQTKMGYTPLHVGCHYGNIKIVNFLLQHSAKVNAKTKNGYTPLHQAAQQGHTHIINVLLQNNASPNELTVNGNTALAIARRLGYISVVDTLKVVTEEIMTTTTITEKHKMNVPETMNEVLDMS

[3] = target: T3, AnkB 28–847 (MBD + partial AI-c) (human, UniProt Q01484-2 28-847); assay: ITC
T3 chain: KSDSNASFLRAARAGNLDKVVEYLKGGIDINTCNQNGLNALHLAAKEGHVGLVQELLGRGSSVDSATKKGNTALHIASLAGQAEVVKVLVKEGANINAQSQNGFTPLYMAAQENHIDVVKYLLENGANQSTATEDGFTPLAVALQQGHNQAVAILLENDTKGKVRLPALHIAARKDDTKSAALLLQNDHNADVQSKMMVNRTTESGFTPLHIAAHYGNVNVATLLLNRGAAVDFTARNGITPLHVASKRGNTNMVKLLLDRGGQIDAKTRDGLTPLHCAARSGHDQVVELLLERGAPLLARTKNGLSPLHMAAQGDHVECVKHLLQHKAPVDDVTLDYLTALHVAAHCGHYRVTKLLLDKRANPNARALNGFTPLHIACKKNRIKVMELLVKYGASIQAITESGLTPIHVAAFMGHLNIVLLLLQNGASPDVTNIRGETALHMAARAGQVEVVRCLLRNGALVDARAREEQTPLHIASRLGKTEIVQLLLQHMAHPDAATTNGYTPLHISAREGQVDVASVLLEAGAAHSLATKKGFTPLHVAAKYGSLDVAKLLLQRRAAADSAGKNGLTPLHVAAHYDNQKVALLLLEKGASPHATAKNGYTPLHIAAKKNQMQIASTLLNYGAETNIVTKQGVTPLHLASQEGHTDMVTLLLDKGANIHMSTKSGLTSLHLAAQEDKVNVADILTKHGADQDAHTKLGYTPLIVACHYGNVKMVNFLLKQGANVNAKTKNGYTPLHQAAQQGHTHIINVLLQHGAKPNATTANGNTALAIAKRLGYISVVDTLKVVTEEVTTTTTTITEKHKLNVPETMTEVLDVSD

[4] = target: T4, AnkG 38–903 (MBD + AI-c + AI-b) (rat, UniProt O70511-1 38-903); assay: ITC
T4 chain: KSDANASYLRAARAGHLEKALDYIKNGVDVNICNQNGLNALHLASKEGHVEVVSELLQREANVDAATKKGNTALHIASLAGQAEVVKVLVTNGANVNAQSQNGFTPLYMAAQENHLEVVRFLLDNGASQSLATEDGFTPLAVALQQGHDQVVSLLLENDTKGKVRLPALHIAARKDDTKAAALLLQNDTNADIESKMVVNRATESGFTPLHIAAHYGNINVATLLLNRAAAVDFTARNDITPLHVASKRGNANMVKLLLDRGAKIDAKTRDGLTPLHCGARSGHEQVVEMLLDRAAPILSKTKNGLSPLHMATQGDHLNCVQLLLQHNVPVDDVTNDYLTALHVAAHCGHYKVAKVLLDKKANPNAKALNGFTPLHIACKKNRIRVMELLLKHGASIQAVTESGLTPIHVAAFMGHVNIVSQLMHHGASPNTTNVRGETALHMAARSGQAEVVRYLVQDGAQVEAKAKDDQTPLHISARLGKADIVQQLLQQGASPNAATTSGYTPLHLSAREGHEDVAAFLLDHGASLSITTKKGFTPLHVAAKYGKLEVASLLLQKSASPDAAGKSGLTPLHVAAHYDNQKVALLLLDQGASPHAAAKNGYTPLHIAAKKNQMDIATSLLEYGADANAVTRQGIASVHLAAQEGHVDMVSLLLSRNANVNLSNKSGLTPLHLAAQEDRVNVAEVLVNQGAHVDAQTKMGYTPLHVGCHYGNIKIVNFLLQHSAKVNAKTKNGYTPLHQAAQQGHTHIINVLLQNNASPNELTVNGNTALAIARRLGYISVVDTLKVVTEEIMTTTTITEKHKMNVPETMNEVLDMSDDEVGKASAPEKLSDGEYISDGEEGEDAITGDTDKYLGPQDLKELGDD

[5] = target: T5, AnkB 28–965 (MBD + AI-c + AI-b) (human, UniProt Q01484-2 28-965); assay: ITC
T5 chain: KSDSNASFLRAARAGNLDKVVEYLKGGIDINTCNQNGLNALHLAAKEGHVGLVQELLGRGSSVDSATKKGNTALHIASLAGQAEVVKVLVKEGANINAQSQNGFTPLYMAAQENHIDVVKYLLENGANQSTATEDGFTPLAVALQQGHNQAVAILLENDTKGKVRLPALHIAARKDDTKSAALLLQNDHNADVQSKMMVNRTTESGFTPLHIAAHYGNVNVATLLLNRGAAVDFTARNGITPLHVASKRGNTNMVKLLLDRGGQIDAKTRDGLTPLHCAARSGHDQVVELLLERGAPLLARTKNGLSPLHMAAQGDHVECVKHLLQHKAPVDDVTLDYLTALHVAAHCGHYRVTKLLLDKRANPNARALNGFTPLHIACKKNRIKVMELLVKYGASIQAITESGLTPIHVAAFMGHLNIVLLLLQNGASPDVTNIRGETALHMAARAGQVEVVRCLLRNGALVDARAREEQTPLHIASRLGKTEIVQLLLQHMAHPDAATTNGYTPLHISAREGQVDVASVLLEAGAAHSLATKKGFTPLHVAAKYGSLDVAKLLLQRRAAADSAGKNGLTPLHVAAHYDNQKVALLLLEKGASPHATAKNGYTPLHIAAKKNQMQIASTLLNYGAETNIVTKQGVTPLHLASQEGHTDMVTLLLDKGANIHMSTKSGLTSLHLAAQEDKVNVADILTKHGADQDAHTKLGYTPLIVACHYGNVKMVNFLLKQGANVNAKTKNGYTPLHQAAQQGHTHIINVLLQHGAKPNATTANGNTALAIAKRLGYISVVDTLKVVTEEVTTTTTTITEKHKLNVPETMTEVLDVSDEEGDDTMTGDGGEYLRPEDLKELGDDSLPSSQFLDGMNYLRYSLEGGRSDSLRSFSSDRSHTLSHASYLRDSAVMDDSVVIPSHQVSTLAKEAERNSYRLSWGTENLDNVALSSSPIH

[6] = target: T3, AnkB 28–847 (MBD + partial AI-c); assay: ITC; AnkB 874-965

Row | Binder | Kd [1] [µM] | Kd [2] [µM] | Kd [3] [µM] | further results
1 | TEKHKLKVPETMTEVLDVSDEEGDD (domain or fragment) [AnkB_AI-c Asn834Lys] | 2.7 |  |  | 
2 | SDGEEGEDAITGDTDKYLGPQDLKELGDD (domain or fragment) [AnkG_AI-b (aa 875–903)] |  | 3.5 |  | 
3 | TEKHKLNVPETQTEVLDVSDEEGDD (domain or fragment) [AnkB_AI-c Met839Gln] | 4.4 |  |  | 
4 | EDLKELGDDSLPSSQFLDGMNALRYSLEGGRS (domain or fragment) [AnkB_AI-b Tyr886Ala] |  |  | 16 | 
5 | SLPSSQFLDGMNYLRYSLEGGRS [AnkB 874-896] |  |  | 13 | 
6 | KASAPEKLSDGEYISDGEEGEDAITGDTDKYLGPQDLKELGDD [AnkG 861-903] |  | 1.1 |  | 
7 | B1 |  | 0.25 |  | Kd [4]: 1.5 µM; Kd [5]: 5.8 µM
8 | TEKHKLNVPETMTEVQDVSDEEGDD (domain or fragment) [AnkB_AI-c Leu843Gln] | 3.9 |  |  | 
9 | SLPSSQFLDGMNYLRYSLEGGRS (domain or fragment) [AnkB AI-b fragment with residues 865 to 873 deleted] |  |  |  | Kd [6]: 17 µM
10 | B2 |  |  | 2.7 | 
